Source: paper PMC4140821, “Structural and Biochemical Characterization of the Cop9 Signalosome CSN5/CSN6 Heterodimer” (PLoS ONE, 2014)
Changes are numbered by the printed parent chain. Names may count otherwise. Values belong to the binder of their own block, whether it stands above or below them.

Columns and labels:
[1] = target: the molecule itself; experiment: crystal structure; CSN6^ΔC alone; crystals at 18°C in 0.2 M tri-sodium citrate, 0.1 M Bis-Tris propane pH 6.5, 20% PEG3350; dimer generated by the crystallographic 2-fold
[2] = target: T1, CSN5^ΔC,WT (human CSN5 1–257 fragment) (human, UniProt Q92905 1-257); experiment: ITC; CSN6^ΔC (WT and variants; 1 mM, 30 injections of 1.8 µL) injected into CSN5^ΔC (WT and variants; 100 µM) in the cell; 20°C; 20 mM Na MES pH 6.5, 75 mM NaCl; one site model; apparent; conditions: both partners purified
T1 construct: COP9 signalosome subunit 5 (CSN5, Jab1), human, residues 1-257 (MPN domain with N- and C-terminal appendices); also called CSN5 catalytic domain; Jab1 fragment

CSN5^ΔC,R106T = target: T2, CSN5^ΔC,R106T (human, UniProt Q92905 1-257, R106T); experiment: as above; conditions: both partners purified
T2 construct: COP9 signalosome subunit 5 (CSN5, Jab1), human, residues 1-257, R106T in the Ins-1 region; also called conformationally-relaxed CSN5^ΔC variant; R106T variant
T2 sequence (Q92905 1-257 R106T): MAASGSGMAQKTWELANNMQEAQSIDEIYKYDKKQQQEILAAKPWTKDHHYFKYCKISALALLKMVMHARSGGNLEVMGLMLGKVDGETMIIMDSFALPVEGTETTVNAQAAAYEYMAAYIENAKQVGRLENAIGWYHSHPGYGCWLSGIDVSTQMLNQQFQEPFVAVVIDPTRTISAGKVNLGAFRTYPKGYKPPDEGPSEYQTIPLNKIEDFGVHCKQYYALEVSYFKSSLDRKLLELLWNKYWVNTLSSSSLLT

T1 sequence (Q92905 1-257, stated change not applied): as the sequence (Q92905 1-257 R106T) above, with T106R counted along it

- Kd [2]: 6 ± 1 µM
- binding result (CSN5^ΔC,R106T): binds
B1: CSN6^ΔC (human CSN6 31–211 fragment) (domain or fragment, UniProt Q7L5N1 31-211, looked up)
chain: MACGVTGSVSVALHPLVILNISDHWIRMRSQEGRPVQVIGALIGKQEGRNIEVMNSFELLSHTVEEKIIIDKEYYYTKEEQFKQVFKELEFLGWYTTGGPPDPSDIHVHKQVCEIIESPLFLKLNPMTKHTDLPVSVFESVIDIINGEATMLFAELTYTLATEEAERIGVDHVARMTATGS
notes: COP9 signalosome subunit 6 (CSN6), human, residues 31-211 (MPN domain with a C-terminal extension); Cloned in pGEX-6P1; Uniformly 15N-labelled for NMR; also called CSN6 N-terminal domain; CSN6 MPN domain; source: LB or 15NH4Cl M9 medium for NMR; not shown: GST, N-terminal, cleaved
- binding result [1]: binds

- fold reduction in binding against WT CSN6^ΔC [2]: 5 fold
B2: CSN6^ΔC,V115E (domain or fragment, human, UniProt Q7L5N1 31-211, looked up)
chain: B1 chain with V85E
notes: COP9 signalosome subunit 6 (CSN6), human, residues 31-211, V115E; everywhere else V115E; also called V115E variant; not shown: GST, N-terminal, cleaved
